Experimental data: publication PMC7862611, “Ribosome-bound Get4/5 facilitates the capture of tail-anchored proteins by Sgt2 in yeast” (Nature Communications, 2021)
Blank lines part the entries; values can stand above or below the molecule they belong to.

Assays:
[1] = molecular target: T1, RNCs carrying the most N-terminal 100 residues of Pgk1 as a nascent chain (yeast (S. cerevisiae) | S. cerevisiae) (UniProt P00560); experiment: pull-down; FLAG-tag pull-down of RNCs with N-terminally FLAG-tagged nascent chains made in yeast translation extracts (wild type, Δsrp54, without Get4/5, without Sgt2 or Get3; with or without 2 µM purified His6Get4/Get5), RNCs first pelleted through a sucrose cushion; immunoblot
T1 sequence (P00560 1-100, looked up): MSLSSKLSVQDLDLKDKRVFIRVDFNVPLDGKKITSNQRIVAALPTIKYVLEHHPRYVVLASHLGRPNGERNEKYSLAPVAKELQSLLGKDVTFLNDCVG

[2] = molecular target: released Sec22 (yeast (S. cerevisiae)) (UniProt P22214); experiment: pull-down; FLAG-tag pull-down of radiolabelled ribosome-released FLAG-Sec22 from yeast translation reactions (wild type, Δget3 with or without 2 µM His6Get4/Get5, Δget3Δget4Δget5); immunoblot
Chain of released Sec22 (yeast (S. cerevisiae)) (P22214 whole entry): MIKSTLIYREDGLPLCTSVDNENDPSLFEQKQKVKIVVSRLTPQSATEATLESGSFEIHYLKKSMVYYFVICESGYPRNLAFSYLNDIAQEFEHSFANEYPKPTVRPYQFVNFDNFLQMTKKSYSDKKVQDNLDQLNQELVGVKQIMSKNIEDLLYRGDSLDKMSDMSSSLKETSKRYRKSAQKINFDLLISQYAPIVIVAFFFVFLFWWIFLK

[3] = molecular target: 80S ribosome (S. cerevisiae); experiment: fluorescence polarisation; fluorescence anisotropy; Get4/5-Atto390 held at 20 nM, 80S ribosomes added to 20–500 nM; 20 °C; 50 mM Tris/HCl pH 7.5, 70 mM NH4Cl, 30 mM KCl, 7 mM MgCl2; one site saturation binding fit; details: both partners purified

Molecule: Get5 (from UniProt Q12285 1-212) (natural protein)
percent associated with RNCs [1]: 2%

Molecule: Get4 (from UniProt Q12125 1-312) (natural protein)
percent associated with RNCs [1]: 2%

B2: signal recognition particle (SRP), followed by its 54 kDa subunit Srp54 (natural protein)
chain: MVLADLGKRINSAVNNAISNTQDDFTTSVDVMLKGIVTALLESDVNIALVSKLRNNIRSQLLSENRSEKSTTNAQTKKLIQKTVFDELCKLVTCEGSEEKAFVPKKRKTNIIMFVGLQGSGKTTSCTKLAVYYSKRGFKVGLVCADTFRAGAFDQLKQNAIRARIPFYGSYTETDPAKVAEEGINKFKKEKFDIIIVDTSGRHHQEEELFQEMIEISNVIKPNQTIMVLDASIGQAAEQQSKAFKESSDFGAIILTKMDGHARGGGAISAVAATNTPIIFIGTGEHIHDLEKFSPKSFISKLLGIGDIESLFEQLQTVSNKEDAKATMENIQKGKFTLLDFKKQMQTIMKMGPLSNIAQMIPGMSNMMNQVGEEETSQKMKKMVYVLDSMTKEELESDGRMFIEEPTRMVRVAKGSGTSVFEVEMILMQQQMMARMAQTATQQQPGAPGANARMPGMPNMPGMPNMPGMPNMPGMPKVTPQMMQQAQQKLKQNPGLMQNMMNMFGGGMGGGMGGGMPDMNEMMKMMQDPQMQQMAKQFGMG
percent associated with RNCs [1]: 0.3%

Next, values leading:

fold change of binding with added m3 against no addition, Δget3 extract [2]: > 2 fold
Molecule: Sgt2 (from UniProt Q12118 1-346) (natural protein)

Kd [3]: 110 nM
B1: Get4/5-Atto390 (complex, yeast (S. cerevisiae))
chain 1: MVPAESNAVQAKLAKTLQRFENKIKAGDYYEAHQTLRTIANRYVRSKSYEHAIELISQGALSFLKAKQGGSGTDLIFYLLEVYDLAEVKVDDISVARLVRLIAELDPSEPNLKDVITGMNNWSIKFSEYKFGDPYLHNTIGSKLLEGDFVYEAERYFMLGTHDSMIKYVDLLWDWLCQVDDIEDSTVAEFFSRLVFNYLFISNISFAHESKDIFLERFIEKFHPKYEKIDKNGYEIVFFEDYSDLNFLQLLLITCQTKDKSYFLNLKNHYLDFSQAYKSELEFLGQEYFNIVAPKQTNFLQDMMSGFLGGSK
chain 2: MSTSASGPEHEFVSKFLTLATLTEPKLPKSYTKPLKDVTNLGVPLPTLKYKYKQNRAKKLKLHQDQQGQDNAAVHLTLKKIQAPKFSIEHDFSPSDTILQIKQHLISEEKASHISEIKLLLKGKVLHDNLFLSDLKVTPANSTITVMIKPNPTISKEPEAEKSTNSPAPAPPQELTVPWDDIEALLKNNFENDQAAVRQVMERLQKGWSLAK
modifications: ATTO-390-maleimide on the surface-exposed cysteine of the two cysteines present in Get4 (C177, 255)
notes: Get4, yeast; Get5, yeast; also called Get4/His6Get5; Get4_(2)Get5_(2) complex; copies: 2 + 2
